Positions count from the first letter of the chain named.
B1: unnamed (protein)
chain 1: QMQLVESGGGVVQPGRSLRLSCAASGFTFSTFAMHWVRQAPGKGLEWVAVIWYDGSNKHYADSVKGRFTITRDNSKNTLNLQMNSLRAEDTAVYYCARAPRYDEEYEAFDVWGQGTMVTVSS
chain 2: SYVLTQPPSVSVAPGQTARITCGGNNLGSKSVHWYQQKPGQAPVLVVYDDSDRPSWIPERFSGSNSGNTATLTISRGEAGDEADYYCQVWDSSSDHVVFGGGTKLTVL
B2: unnamed (protein)
chain 1: B1 chain 1 with E105Y, Y106V
chain 2: B1 chain 2
B3: unnamed (protein)
chain 1: B1 chain 1 with E104D, E105Y, Y106L
chain 2: B1 chain 2
B4: unnamed (protein)
chain 1: B1 chain 1 with T31S, F32Y, E104D, E105Y
chain 2: B1 chain 2
B5: unnamed (protein)
chain 1: B1 chain 1 with F32Y, E104Y, E105Y, Y106W
chain 2: B1 chain 2
B6: unnamed (protein)
chain 1: B1 chain 1 with A99S, E104D, E105Y
chain 2: B1 chain 2
B7: unnamed (protein)
chain 1: B1 chain 1 with E105D
chain 2: B1 chain 2
B8: unnamed (protein)
chain 1: B1 chain 1 with F32Y, E104D, E105Y, Y106L
chain 2: B1 chain 2
B9: unnamed (protein)
chain 1: B1 chain 1 with T31S, E104D, E105Y
chain 2: B1 chain 2
B10: unnamed (protein)
chain 1: B1 chain 1 with E104D
chain 2: B1 chain 2

Target: TSLP, Q969D9
Assay: Kd (SPR)

Binder	Kd [nM]
B1	240
B2	129
B3	159
B4	153
B5	151
B6	172
B7	148
B8	152
B9	136
B10	180

From the FLAb antibody collection (doi:10.1101/2023.12.08.570889)
